Laboratory results: patent US7435574B2 (Degussa AG, priority 2001, dated 2008)

Tests used:
[1] = biological target: NADH oxidase (NOX) from Lactobacillus brevis DSM 20054, wild type, SEQ ID NO:2 (Levilactobacillus brevis, UniProt Q03Q85); conditions: higher NADH concentrations (up to 0.5 mM); photometric
[2] = temperature optimum of the NADH oxidase; type: biochemical; conditions: FIG. 3
[3] = NAD+ regeneration coupled with R-specific alcohol dehydrogenase recADHG37D, oxidation of (R,S)-phenylethanol, GC analysis; type: biochemical; conditions: 50 mM (R,S)-phenylethanol, 2 mM NADH, pH 7.0, 1 U recADHG37D and 2 U NADH oxidase, FIG. 4
Procedure: This may be necessary for example if NAD-dependent dehydrogenases are used for the oxidation, as has been shown in a general way hereinbefore (reaction scheme 1).
(R,S)-phenylethanol was used as alcohol, and the reaction was carried out as a batch reaction.
As a control the same experiment was carried out, but without the addition of NADH oxidase.

[4] = temperature stability of the NADH oxidase (storage at 30° C. and 42° C., residual activity); type: physicochemical
Procedure: In order to determine the temperature stability enzyme samples were stored at 30° C. and 42° C., samples were taken at various times, and the residual activity was measured. […] At 42° C. the enzyme deactivates initially (up to ca. 120 minutes) relatively quickly, following which it appears to be stable at ca. 50% residual activity over a relatively long time (at least 16 hours).

[5] = pH stability of the NADH oxidase (8 hours incubation in buffers, residual activity); type: physicochemical
Procedure: The pH optimum was measured in the range pH 4.0 to 10.0. Different buffers were used depending on the pH value. As a check on the influence of the buffer, when changing the buffer this pH value was measured twice in the different buffers (pH 7.0 and pH 8.5). 0.1 M citric acid/Na2PO4 was used for the range pH 4.0-7.0, 0.1 M TEA was used for the range 7.0-8.5, and 0.1 M glycine/NaOH was used for the range pH 8.5-10.0.
At pH 8.5 the enzyme is still up to 100% stable after 8 hours in TEA/NaOH buffer as well as in glycine/NaOH buffer. The figure illustrates that the enzyme stable in the slightly alkaline range (pH 8-9) is also stable in a wider range. This range is useful for application purposes if the NADH oxidase for the oxidation is to be coupled with an NAD-dependent dehydrogenase, since the pH optimum of many dehydrogenases for the oxidation lies in a slightly alkaline range.

[6] = determination of the KM value for NADH; type: biochemical
[7] = substrate: NC(=O)C1=CN([C@@H]2O[C@H](COP(=O)(O)OP(=O)(O)OC[C@H]3O[C@@H](n4cnc5c(N)ncnc54)[C@H](O)[C@@H]3O)[C@@H](O)[C@H]2O)C=CC1; assay: purified protein, by the assay type; conditions: other: NADH varied 0.0013 to 0.52 mM, photometric, 340 nm, 30° C., 100 mM potassium phosphate pH 7.5, 1 mM DTT (standard test), enzyme purified by 4 chromatographic steps

Molecule: NC(=O)C1=CN([C@@H]2O[C@H](COP(=O)(O)OP(=O)(O)OC[C@H]3O[C@@H](n4cnc5c(N)ncnc54)[C@H](O)[C@@H]3O)[C@@H](O)[C@H]2O)C=CC1 [NADH]
- excess inhibition by NADH [1]: weak excess inhibition

B1: NADH oxidase (NOX) from Lactobacillus brevis DSM 20054, wild type, SEQ ID NO:2 (Levilactobacillus brevis ATCC 367) (protein)
chain: MKVTVVGCTHAGTFAIKQILAEHPDAEVTVYERNDVISFLSCGIALYLGGKVADPQGLFYSSPEELQKLGANVQMNHNVLAIDPDQKTVTVEDLTSHAQTTESYDKLVMTSGSWPIVPKIPGIDSDRVKLCKNWAHAQALIEDAKEAKRITVIGAGYIGAELAEAYSTTGHDVTLIDAMDRVMPKYFDADFTDVIEQDYRDHGVQLALSETVESFTDSATGLTIKTDKNSYETDLAILCIGFRPNTDLLKGKVDMAPNGAIITDDYMRSSNPDIFAAGDSAAVHYNPTHQNAYIPLATNAVRQGILVGKNLVKPTVKYMGTQSSSGLALYDRTIVSTGLTLAAAKQQGVNAEQVIVEDNYRPEFMPSTEPVLMSLVFDPDTHRILGGALMSKYDVSQSANTLSVCIQNENTIDDLAMVDMLFQPNFDRPFNYLNILAQAAQAKVAQSVNA
- temperature of maximum activity [2]: 40 °C
- oxidation of the R-alcohol of (R,S)-phenylethanol in the coupled reaction [3]: almost completely oxidised
- time for which the enzyme is in practice stable ([4]; storage at 30° C.): ca. 400 minutes
- half-value time of deactivation ([4]; storage at 30° C., after ca. 400 minutes): ca. 18 hours
- residual activity ([4]; storage at 42° C., after initial deactivation (up to ca. 120 minutes), stable for at least 16 hours): ca. 50%
- first stability optimum (pH) ([5]; 8 hours incubation, FIG. 2): 5.0 pH
- second stability optimum (pH) ([5]; 8 hours incubation, FIG. 2): 8.5 pH
- stability in the range pH 5.5-7.5 ([5]; 8 hours incubation, pH 5.5-7.5): moderately stable
- stability (residual activity) after 8 hours at pH 8.5 ([5]; pH 8.5, TEA/NaOH buffer as well as glycine/NaOH buffer, 8 hours): up to 100%
- excess (substrate) inhibition at higher NADH concentrations ([6]; NADH up to 0.5 mM): only a weak excess inhibition
- NADH concentration at which maximum activity is reached ([6]; NADH varied from 0.0013 to 0.52 mM): 0.1 mM
- Km [7]: 24 µM
